Test results as given in article PMC9160021, “Artificial intelligence-assisted cryoEM structure of Bfr2-Lcp5 complex observed in the yeast small subunit processome” (Communications Biology, 2022).

T1: MBP-Bfr2(266–432) (S. cerevisiae (genomic DNA of BY4741 …, UniProt Q06631 266-432))
T1 construct: source: E. coli Rosetta(DE3); in lysate (pull-down in cell) and purified (amylose, monoQ, gel filtration)
T1 sequence (looked up): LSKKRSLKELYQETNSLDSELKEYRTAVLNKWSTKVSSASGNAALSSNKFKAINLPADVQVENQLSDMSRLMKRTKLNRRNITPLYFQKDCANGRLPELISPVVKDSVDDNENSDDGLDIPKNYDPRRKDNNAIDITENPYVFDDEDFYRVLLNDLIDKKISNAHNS

T2: Enp2 (S. cerevisiae (endogenous in yeast …, UniProt P48234 1-707))
T2 construct: Enp2, S. cerevisiae, endogenous in the Δpih1-90S; its β-propeller is named as the part that Bfr2 touches; Endogenous protein of the 90S particle
T2 sequence (looked up): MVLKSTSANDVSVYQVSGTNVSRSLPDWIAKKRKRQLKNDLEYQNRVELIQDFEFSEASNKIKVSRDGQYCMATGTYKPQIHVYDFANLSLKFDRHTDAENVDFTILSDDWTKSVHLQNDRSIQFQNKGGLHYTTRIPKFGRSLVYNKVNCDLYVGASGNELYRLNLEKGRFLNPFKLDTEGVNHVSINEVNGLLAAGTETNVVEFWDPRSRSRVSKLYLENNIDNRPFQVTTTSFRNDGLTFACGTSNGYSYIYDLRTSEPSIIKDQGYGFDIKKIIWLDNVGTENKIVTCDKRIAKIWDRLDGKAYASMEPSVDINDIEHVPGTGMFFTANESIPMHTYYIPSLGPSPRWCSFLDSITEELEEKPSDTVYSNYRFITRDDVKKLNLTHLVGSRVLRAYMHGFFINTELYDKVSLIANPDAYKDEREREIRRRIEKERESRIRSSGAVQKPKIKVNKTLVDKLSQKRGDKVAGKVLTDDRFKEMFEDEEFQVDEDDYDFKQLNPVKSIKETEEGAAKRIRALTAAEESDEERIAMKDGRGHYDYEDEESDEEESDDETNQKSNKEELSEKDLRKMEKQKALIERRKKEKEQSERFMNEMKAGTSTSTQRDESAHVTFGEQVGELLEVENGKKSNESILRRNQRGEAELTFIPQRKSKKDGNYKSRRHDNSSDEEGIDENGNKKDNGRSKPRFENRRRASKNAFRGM

B1: His-Lcp5(1–160) (domain or fragment, S. cerevisiae, UniProt P40079 1-160, looked up)
chain: MSELNALLKDINGSLTATSESLERLSGIYSNSATDEIPESNQLHEHLFYDAKKPAEKVSLLSLKNGSMLGYINSLLMLIGNRLDDECKDPSAMDARERSIQHRVVLERGVKPLEKKLAYQLDKLTRAYVKMEKEYKDAEKRALEKSTLVNHSGNDDSEDD
notes: Lcp5, S. cerevisiae, residues 1–160, polyhistidine tagged; The methods describe only the cloning of the untagged Lcp5(1–160); also called polyhistidine tagged Lcp5 fragment 1–160; source: bacteria expression host, purified
B2: Bfr2 (natural protein, UniProt Q06631 1-534, looked up)
chain: MEKSLADQISDIAIKPVNKDFDIEDEENASLFQHNEKNGESDLSDYGNSNTEETKKAHYLEVEKSKLRAEKGLELNDPKYTGVKGSRQALYEEVSENEDEEEEEEEEEEKEEDALSFRTDSEDEEVEIDEEESDADGGETEEAQQKRHALSKLIQQETKQAINKLSQSVQRDASKGYSILQQTKLFDNIIDLRIKLQKAVIAANKLPLTTESWEEAKMDDSEETKRLLKENEKLFNNLFNRLINFRIKFQLGDHITQNEEVAKHKLSKKRSLKELYQETNSLDSELKEYRTAVLNKWSTKVSSASGNAALSSNKFKAINLPADVQVENQLSDMSRLMKRTKLNRRNITPLYFQKDCANGRLPELISPVVKDSVDDNENSDDGLDIPKNYDPRRKDNNAIDITENPYVFDDEDFYRVLLNDLIDKKISNAHNSESAAITITSTNARSNNKLKKNIDTKASKGRKLNYSVQDPIANYEAPITSGYKWSDDQIDEFFAGLLGQRVNFNENEDEEQHARIENDEELEAVKNDDIQIFG
notes: Bfr2, S. cerevisiae, endogenous in the Δpih1-90S; the whole protein is 1–534; Endogenous protein of the 90S particle; only part of it is modelled in the map
B3: Lcp5 (natural protein, UniProt P40079 1-357, looked up)
chain: MSELNALLKDINGSLTATSESLERLSGIYSNSATDEIPESNQLHEHLFYDAKKPAEKVSLLSLKNGSMLGYINSLLMLIGNRLDDECKDPSAMDARERSIQHRVVLERGVKPLEKKLAYQLDKLTRAYVKMEKEYKDAEKRALEKSTLVNHSGNDDSEDDESSEDEIAYRPNTSGIINTNKKSSAYRVEETAKQENGEENDDNETGVYKPPKITAVLPPQQTHFEDRFDAREHKDRSNKSRMQAMEEYIRESSDQPDWSASIGADIVNHGRGGIKSLRDTEKERRVTSFEEDNFTRLNITNKAEKRKQKQRERNARMNVIGGEDFGIFSSKRKLEDSTSRRGAKKTRSAWDRAQRRL
notes: Lcp5, S. cerevisiae, endogenous in the Δpih1-90S; the newly modelled N-terminal domain holds residues 1–141; Endogenous protein of the 90S particle; only part of it is modelled in the map

Experiments:
Details in all cases: both partners purified
MBP-Bfr2(266–432) = target: T1, MBP-Bfr2(266–432); experiment: pull-down; in vitro: purified MBP, MBP-Bfr2(360–432) or MBP-Bfr2(266–432) as bait with purified His-Lcp5(1–160)
Enp2 = target: T2, Enp2; experiment: cryo-EM structure; Δpih1-90S purified from yeast by tandem affinity (Pwp2-TAP on IgG Sepharose, Kre33-TwinStrep on Strep-Tactin); 3.99 Å overall, 5.04 Å for the head (5' domain) where Bfr2-Lcp5 lies; Bfr2-Lcp5 model placed with the aid of AlphaFold
Bfr2 = target: B2; experiment: as above

Binder: B1
binding result (MBP-Bfr2(266–432)): binds

Binder: B2
binding result (Enp2): binds

Binder: B3
binding result (Bfr2): binds
